# Tested on: MS2 coat protein
# Assay: apparent KD of MS2 coat protein, switch ON state; designed switch direction (-1 OFF switch, 1 ON switch): -1; higher = weaker reporter binding
# Details: FMN input: 0 or 200 uM; Eterna round: R93 (includes R88 designs)
# Method in brief: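 Designed RNA switches were transcribed on-chip from Illumina sequencing clusters. SNAP-549-labelled MS2 coat protein was titrated onto them in twofold steps from 0.7 or 1.5 nM to 3 µM in 100 mM Tris-HCl pH 7.5, 80 mM KCl, 4 mM MgCl2, either without or with constant ligand. Apparent KD reflects the per-design median of normalised cluster binding-curve fits.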
row,Sequence,apparent KD of MS2 coat protein
1,AACAAACAUGAGGAUCACCCAUGUCAGGAUAUCGAAACAACAAACAACAAACAACAAACGAGAAGGGACAACAA [e1],19.2 nM
2,AAAAAACAUGAGGAUCACCCAUGUGAGGAUAUCCAAAAGUUAAAUAAAAAGACGAAAAGGAGAAGGCGCAAAAA [Mat - Mod of Eli],64.9 nM
3,CAGUACUGAGGAUAUACAUGAGGAUCACCCAUGUGGUCAAGCUACGAAAGUAGCAAAAGUAGAAGGCAGUACUG [Ex3: 811],209 nM
4,AAGAAGUCAGGAUAUGCCAGAGAUCACGAAAGUGAUGAGUAGCAGAAGGGACAUGAGGAUCACCCAUGUAAAGA [Opal 6],48.2 nM
5,AAUAAGACAGGAUAUACGAAAAUAAGCGGAAACGCAAAGGGACAUGAGGAUCACCCAUGUAGAAGGGUCGAUAA [Tetraloop... 61% 3],80.2 nM
6,"AAGGGACAUGAGGAUCACCCAUGUCAGGAUAUGAUGCGAAUAAAGAAAGAAGAAAGCAUCAGAAGGGACACCAA [58%, Disencluded 3, 4]",24.4 nM
7,AAAACACAUGAGGAUCACCCAUGUGAGGAUAUGCUAUGGAAAUAAAAAAUAAAACAUAGCAGAAGGCACAAAAA [Mat - Exclusion 1 - Eli mod - D40],23.9 nM
8,UAAAGACAUGAGGAUCACCCAUGUGAGGAUAUCGGAGGUGACGGAACAUCGAGUUCGGCGAGAAGGCGCAGGAA [JR_Exc001_Sub408],69.6 nM
9,AAAAAGUCAGGAUAUGUCAAAAGUCACAAAAGUGACAAAAGACAGAAGGGACAUGAGGAUCACCCAUGUAAAAA [Mod of Eli],53.1 nM
10,CGCUAGUCAGGAUAUACGAACAUGUCAAAAGACGUGAAGGGACAUGAGGAUCACCCAUGUAGAAGGGACUAGCG [Mat - Exclusion 2 - JL mod - D4],30.2 nM
11,AACAUACAUGAGGAUCACCCAUGUCAGGAUAUGCCGGGUUAGAACCAAAAAAAAAAACGUAGAAGGGACAAAAA [Bilbo Confounded 4 - Jieux - Exclusion 1],234 nM
12,AACAGUACAGGAUAUACAUGAGGAUCACCCAUGUGAGAAUUAAGUGGAAGACCACAAAGUAGAAGGGUACUGAA [Mat - Exclusion 3 - JL mod - D10],28.4 nM
13,AAAGAACAUGAGGAUCACCCAUGUGAGGAUAUACGAGCGUGAGAAAGAUAAAACGAGCGUAGAAGGCACAAGAA [JR_Exclusion1_Sub4],43.4 nM
14,AAUAAACAUGAGGAUCACCCAUGUGAGGAUAUGGUAUAAUUAGGACAGUAAUGAUAAACCAGAAGGCACAAAUA [JR_Exc001_Sub1103],35.6 nM
15,AAAAAGUCAGGAUAUGCAUGAGCAAAAAAAAAAAAGCUCAUGCAGAAGGGACAUGAGGAUCACCCAUGUAAAAA [Ex 4 May 10],70.2 nM
16,"AGUUGGCGAGGAUAUACAUGAGGAUCACCCAUGUAAAAUAAAUAAAAAAUAGGGAAAAGUAGAAGGCGCUGACA [73%, Moding Norbert Elias, 13]",48.4 nM
17,"AAAGGAUCAGGAUAUGUGUGGAAAAAGUGUAUUCAAAAAAAACAUGAGGAUCACCCAUGUAGAAGGGAUCCAAA [Mod of 2Normal (20/19) by Nando, Round 1]",298 nM
18,AUCUAGUGAGGAUAUCGUACAAUAUGGAAAACAUAGAGGUACGAGAAGGCACAUGAGGAUCACCCAUGUAAAAC [May 100],26.8 nM
19,AAAAAGUCAGGAUAUGGCAAAGGUCACGAAAGUGACAAAGGCUAGAAGGGACAUGAGGAUCACCCAUGUAAAAA [Fiskers Exclusion 4 D3],53.4 nM
20,AACAUACAUGAGGAUCACCCAUGUCAGGAUAUGCCGGGUUAGAGCCAACUAAAAAAACGUAGAAGGGACAAAAA [Bilbo Confounded 6 - Jieux - Exclusion 1],62.7 nM
21,AUCUACCUAGGAUAUACAUGAGGAUCACCCAUGUACAGAUACAACAAGGGAAACACACGUAGAAGGAGGAAGAU [JR_Exc003_Sub1206],25.8 nM
22,AUAGGCCUAGGAUAUACAUGAGGAUCACCCAUGUAAAUAAAUCGAUCAUGAUAAACGUGUAGAAGGAGGAAUAA [JR_Exc003_Sub206],28.8 nM
23,GGUUGUGAAGGAUAUACAUGAGGAUCACCCAUGUGAGAGAAAAAAGUGAGAAAGAAAAGUAGAAGGUCGUGACG [salish99-ex3-73],34.7 nM

row,Sequence,apparent KD of MS2 coat protein
1,AAGAAGAGAGGAUAUACUAAAGAAAUGAAAAGAAAUAAAGAACAUGAGGAUCACCCAUGUAGAAGGCUCAAGAA ['Ammu Ahotepre],25.5 nM
2,AAGACUAGAGGAUAUACAUGAGGAUCACCCAUGUAACUGUCAGGUGACUGACGGAGAUGUAGAAGGCUAGUCAA [Wider Swing],17.2 nM
3,AACAUGUCAGGAUAUAUAAGAAAAGAAAAGAAAGAAAAGAAAUAGAAGGGACAUGAGGAUCACCCAUGUAAGAA [EteRNA is fun!],45.2 nM
4,AAAAAGAUAGGAUAUACGUACAUGUCGAAAGACGUGAAGGGACAUGAGGAUCACCCAUGUAGAAGGAUUAAAAA [Mat - Exclusion 2 - JL mod - D90],43.8 nM
5,AAAAAGGGAGGAUAUGCAUAAAAAAAAAAAAAAAAAAAAAAACAUGAGGAUCACCCAUGUAGAAGGCCCAAAAA [Dora Explored - Jieux - Exclusion 2],58 nM
6,AAAAAGGGAGGAUAUGCAUACACACAAAAAAAAAAACCGGGACAUGAGGAUCACCCAUGUAGAAGGCCCAAAAA [Dora Explored 6 - Jieux - Exclusion 2],33.5 nM
7,AAGAAUUGAGGAUAUACAAGGAAGAAAGAAAAGAAAAGAAAACAUGAGGAUCACCCAUGUAGAAGGCAAUAGAA [EteRNA is fun!],23.5 nM
8,AAAAAGGCAGGAUAUACGAACAUGUCAAAAGACGUGAAGGGACAUGAGGAUCACCCAUGUAGAAGGGUCAAGAA [JL Stem Breaker 18],218 nM
9,AAAGGACAAGGAUAUACAUGAGGAUCACCCAUGUAAAAAACAUAAUAAAAUAACUUAUGUAGAAGGUGUCCAAA [Mat - Exclusion 3 - Eli mod - D99],23.1 nM
10,AAACGUAGAGGAUAUACGAAAAGAUUACGAAAGUAAUCGGGACAUGAGGAUCACCCAUGUAGAAGGCUACGAAA [Mod2 of Meechl 64% 3],27.1 nM
11,AAAACGUGAGGAUAUACUAAAAUAAAAAAUUAUGUUAAAAAACAUGAGGAUCACCCAUGUAGAAGGCACAAAAA [AJ 3],29.8 nM
12,"AGGAAACAUGAGGAUCACCCAUGUGAGGAUAUGAACGAAAAUAAAUAAAAAUAAAAGUUCAGAAGGCAUAAAAA [66%, Wbt, 4]",30 nM
13,AAAAAGUCAGGAUAUAUCAAAGCCUAUGAAAGUGGGAAAGGGUAGAAGGGACAUGAGGAUCACCCAUGUAAAAA [Banishment 10 - Jieux - Exclusion 4],62.3 nM
14,ACAAACCGAGGAUAUACAUGAGGAUCACCCAUGUAGACGAACACAUGCGUCAUCACCAGUAGAAGGUGGAAAAC [Telaandi],29.9 nM
15,AUAAUGUGAGGAUAUACAUGAGGAUCACCCAUGUAAUUAAAAAGGAGAGACACAAUUCGUAGAAGGUACAUUUA [JR_Exc003_Sub509],23.4 nM
16,AAGUAGGUAGGAUAUGCAUAGAUAUAUAUUCAUGUGGAACUACAUGAGGAUCACCCAUGUAGAAGGACCUAAUA [AJ 42],18.1 nM
17,AAGAAACAUGAGGAUCACCCAUGUCAGGAUAUAGAAAAGAAAAGAAAAGAAAGAAGAACUAGAAGGGACAAAGG [Menkare],34.1 nM
18,AAGAAACAAGGAUAUACAAGGAAGAAAGAAAAGAAAAGAAAACAUGAGGAUCACCCAUGUAGAAGGUGUUAGAA [EteRNA is fun!],40.3 nM
19,AAGAAGCUAGGAUAUACAAAAUAAAAGAAAAGAAAGAAAGAACAUGAGGAUCACCCAUGUAGAAGGAGCAAGAA [Sebkay],31.3 nM
20,GAAAACAGAGGAUAUACAUGAUUAUGACGAAAGUCAUAAAAACAUGAGGAUCACCCAUGUAGAAGGCUGAAGAA [Meechl MS2 Ex2 2],130 nM
21,AAGAAUGCAGGAUAUACAUGAGGAUCACCCAUGUAAAAGAAAGAAGGGAAAGAGAAAAGUAGAAGGGCAAAGAA [Bakare Tantamani],36 nM
22,UCCGAACAUGAGGAUCACCCAUGUCAGGAUAUACACCCAGCAUGUAAACCAUGCUCAAGUAGAAGGGACGGGUG [Teisaes],34.9 nM

# From the supplement of paper PMC9170038
